According to PMC11284791, “Ribosome External Electric Field Regulates Metabolic Enzyme Activity: The RAMBO Effect” (The Journal of Physical Chemistry. B, 2024):

Molecular target: the molecule itself
Assay: cross-linking; His-TPI alone with 2 mM BS(PEG)5; 10 mM sodium phosphate pH 7.5, 100 mM NaCl, 10 mM MgCl2, RT, 30 min; SDS-PAGE

B1: C-terminal His-tagged triosephosphate isomerase from G. gallus (enzyme, UniProt P00940 1-248, looked up)
chain: MAPRKFFVGGNWKMNGDKKSLGELIHTLNGAKLSADTEVVCGAPSIYLDFARQKLDAKIGVAAQNCYKVPKGAFTGEISPAMIKDIGAAWVILGHSERRHVFGESDELIGQKVAHALAEGLGVIACIGEKLDEREAGITEKVVFEQTKAIADNVKDWSKVVLAYEPVWAIGTGKTATPQQAQEVHEKLRGWLKSHVSDAVAQSTRIIYGGSVTGGNCKELASQHDVDGFLVGGASLKPEFVDIINAKH
notes: Triosephosphate isomerase, G. gallus, 248 residues, as m1, with a C-terminal His tag; also called His-TPI; His-tagged TPI; source: E. coli BL21 (DE3), pET-21a(+)-His-TPI, purified (Ni-NTA); not shown: His tag, C-terminal, kept
**Q.** With B1 as the protein, how does the “stoichiometry N” value read?
**A.** Its value is 2.
